What follows are sequences tested on Escherichia coli TOP10 (assay: shrunken log2 fold change of peptide-encoding DNA abundance (4.5 h post-induction vs induction); higher = less antimicrobial activity (less host growth inhibition)). Settings: time post-induction: 4.5 h; library: site-saturation at positions 5, 18, 19, 20.
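Note: peptides expressed intracellularly from a pBAD plasmid library in pooled LB shake-flask culture, induced with 0.3% L-arabinose, DNA abundance read by NGS, three biological replicates, DESeq2 with apeglm shrinkage.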

Sequence	shrunken log2 fold change
RRIRMRPPRLPRPRPRPHIKPRP	-0.501
RRIRRRPPRLPRPRPRPDPPPRP	0.443
RRIRYRPPRLPRPRPRPDGCPRP	-0.029
RRIRCRPPRLPRPRPRPRTIPRP	-0.154
RRIRCRPPRLPRPRPRPTNVPRP	-0.154
RRIRLRPPRLPRPRPRPKDSPRP	-0.139
RRIRYRPPRLPRPRPRPTHYPRP	-0.867
RRIRIRPPRLPRPRPRPQWRPRP	-0.191
RRIRRRPPRLPRPRPRPLSYPRP	-0.0226
RRIRIRPPRLPRPRPRPPICPRP	-0.132
RRIRLRPPRLPRPRPRPVAPPRP	0.474
RRIRIRPPRLPRPRPRPEHSPRP	0.0398
RRIRARPPRLPRPRPRPCINPRP	-0.353
RRIRMRPPRLPRPRPRPVTAPRP	0.57
RRIRHRPPRLPRPRPRPHIFPRP	-0.308
RRIRQRPPRLPRPRPRPYKRPRP	-0.213
RRIRMRPPRLPRPRPRPMNKPRP	-0.0775
RRIRWRPPRLPRPRPRPNKIPRP	-0.432
RRIRNRPPRLPRPRPRPGKKPRP	-0.00783
RRIRQRPPRLPRPRPRPITYPRP	-0.402
RRIRRRPPRLPRPRPRPDTAPRP	-0.0709
RRIRPRPPRLPRPRPRPKVFPRP	-0.0552

Sequence	shrunken log2 fold change
RRIRHRPPRLPRPRPRPFKSPRP	0.00748
RRIRIRPPRLPRPRPRPYMAPRP	-0.281
RRIRDRPPRLPRPRPRPKQIPRP	-0.0135
RRIRMRPPRLPRPRPRPKWKPRP	0.195
RRIRCRPPRLPRPRPRPRPRPRP	0.83
RRIRQRPPRLPRPRPRPMNAPRP	0.0115
RRIRWRPPRLPRPRPRPLLCPRP	0.15
RRIRSRPPRLPRPRPRPEIDPRP	0.166
RRIRTRPPRLPRPRPRPFLFPRP	-0.303
RRIRERPPRLPRPRPRPKYVPRP	-0.475
RRIRKRPPRLPRPRPRPMISPRP	0.18
RRIRDRPPRLPRPRPRPRLQPRP	0.0983
RRIRVRPPRLPRPRPRPMRCPRP	0.204
RRIRLRPPRLPRPRPRPDQLPRP	-0.0435
RRIRVRPPRLPRPRPRPQRFPRP	-0.163
RRIRDRPPRLPRPRPRPKFQPRP	0.00463
RRIRKRPPRLPRPRPRPLRDPRP	0.757
RRIRLRPPRLPRPRPRPKRHPRP	0.208
RRIRRRPPRLPRPRPRPFSFPRP	-0.0665
RRIRMRPPRLPRPRPRPTDVPRP	0.141
RRIRQRPPRLPRPRPRPPDNPRP	0.00496
RRIRTRPPRLPRPRPRPTLIPRP	-0.108

Sequence	shrunken log2 fold change
RRIRIRPPRLPRPRPRPVQRPRP	-0.039
RRIRWRPPRLPRPRPRPPYQPRP	-0.172
RRIRQRPPRLPRPRPRPQQFPRP	0.0507
RRIRLRPPRLPRPRPRPMHIPRP	0.0952
RRIRVRPPRLPRPRPRPVPTPRP	0.149
RRIRNRPPRLPRPRPRPLQYPRP	-0.0315
RRIRFRPPRLPRPRPRPGWVPRP	0.176
RRIRFRPPRLPRPRPRPCAVPRP	-0.46
RRIRTRPPRLPRPRPRPQTPPRP	0.25
RRIRMRPPRLPRPRPRPKEQPRP	1.26
RRIRWRPPRLPRPRPRPLHMPRP	-0.0711
RRIRARPPRLPRPRPRPINVPRP	-0.0118
RRIRERPPRLPRPRPRPETHPRP	0.178
RRIRPRPPRLPRPRPRPGPFPRP	0.574
RRIRCRPPRLPRPRPRPGVQPRP	-0.419
RRIRNRPPRLPRPRPRPGRHPRP	0.00674
RRIRARPPRLPRPRPRPLIWPRP	0.359
RRIRDRPPRLPRPRPRPNINPRP	-0.35
RRIRPRPPRLPRPRPRPYDKPRP	-0.512
RRIRDRPPRLPRPRPRPVLGPRP	0.162
RRIRERPPRLPRPRPRPWEPPRP	0.073
RRIRTRPPRLPRPRPRPMHMPRP	-0.202

Sequence	shrunken log2 fold change
RRIRVRPPRLPRPRPRPVALPRP	0.0693
RRIRMRPPRLPRPRPRPQGQPRP	0.253
RRIRPRPPRLPRPRPRPLSIPRP	-0.498
RRIRKRPPRLPRPRPRPLPMPRP	0.562
RRIRMRPPRLPRPRPRPMEYPRP	0.0305
RRIRERPPRLPRPRPRPRPTPRP	0.35
RRIRQRPPRLPRPRPRPFVNPRP	-0.545
RRIRTRPPRLPRPRPRPRAQPRP	0.461
RRIRDRPPRLPRPRPRPCNPPRP	-0.13
RRIRMRPPRLPRPRPRPVYNPRP	-0.17
RRIRHRPPRLPRPRPRPSDCPRP	-0.126
RRIRQRPPRLPRPRPRPWAIPRP	0.0485
RRIRKRPPRLPRPRPRPGVMPRP	0.895
RRIRSRPPRLPRPRPRPVYMPRP	-0.461
RRIRNRPPRLPRPRPRPVNHPRP	-0.163
RRIRCRPPRLPRPRPRPFCKPRP	-0.0692
RRIRKRPPRLPRPRPRPLIFPRP	-0.0683
RRIRMRPPRLPRPRPRPRLPPRP	0.805
RRIRQRPPRLPRPRPRPVDSPRP	0.0997
RRIRPRPPRLPRPRPRPSLPPRP	-0.187
RRIRLRPPRLPRPRPRPDLTPRP	0.169
RRIRCRPPRLPRPRPRPYSSPRP	0.00688

Sequence	shrunken log2 fold change
RRIRTRPPRLPRPRPRPDLKPRP	0.156
RRIRTRPPRLPRPRPRPILKPRP	-0.348
RRIRHRPPRLPRPRPRPLQTPRP	0.139
RRIRQRPPRLPRPRPRPCDFPRP	0.0344
RRIRKRPPRLPRPRPRPEVEPRP	2.8
RRIRHRPPRLPRPRPRPNDLPRP	0.0529
RRIRHRPPRLPRPRPRPTYVPRP	-0.143
RRIRQRPPRLPRPRPRPYRQPRP	0.00902
RRIRDRPPRLPRPRPRPVDKPRP	-0.01
RRIRERPPRLPRPRPRPPHVPRP	-0.362
RRIRARPPRLPRPRPRPFMHPRP	0.229
RRIRMRPPRLPRPRPRPPGNPRP	0.475
RRIRSRPPRLPRPRPRPCNLPRP	-0.561
RRIRIRPPRLPRPRPRPRIDPRP	-0.0642
RRIRFRPPRLPRPRPRPRAGPRP	0.614
RRIRKRPPRLPRPRPRPNRAPRP	-0.0335
RRIRVRPPRLPRPRPRPLACPRP	0.214
RRIRYRPPRLPRPRPRPFCPPRP	-0.878
RRIRPRPPRLPRPRPRPWCDPRP	-0.301
RRIRGRPPRLPRPRPRPTHKPRP	0.854
RRIRFRPPRLPRPRPRPNHVPRP	-0.276

Reference: the supplement of paper PMC9112550, “Optimization of the antimicrobial peptide Bac7 by deep mutational scanning” (BMC Biology, 2022)
